This is an account of results in PMC5957452, “Structural basis for overhang excision and terminal unwinding of DNA duplexes by TREX1” (PLoS Biology, 2018).

This data set concerns the molecule itself. Briefly: crystal structure; TREX1 (15-25 mg/mL) in 300 mM NaCl, 50 mM Tris-HCl pH 7.0 mixed with DNA substrates at molar ratio 1:1.5; four TREX1-DNA complex crystals, TREX1 dimer in the asymmetric unit.

B1: Three prime repair exonuclease 1 (TREX1), mouse, residues 1-242 (C-terminal transmembrane domain truncated) (enzyme, Mus musculus, UniProt Q91XB0 1-242, looked up)
chain: MGSQTLPHGHMQTLIFLDLEATGLPSSRPEVTELCLLAVHRRALENTSISQGHPPPVPRPPRVVDKLSLCIAPGKACSPGASEITGLSKAELEVQGRQRFDDNLAILLRAFLQRQPQPCCLVAHNGDRYDFPLLQTELARLSTPSPLDGTFCVDSIAALKALEQASSPSGNGSRKSYSLGSIYTRLYWQAPTDSHTAEGDVLTLLSICQWKPQALLQWVDEHARPFSTVKPMYGTPATTGTT
notes: TREX1, Mus musculus, residues 1-242, subcloned into the BamHI/XhoI site of pET28a; C-terminal transmembrane domain truncated; His-tagged or non-His-tagged (thrombin-treated) TREX1 was used for crystallization; Crystals also hold DNA substrates and Mg2+; also called mTREX1; wild-type TREX1; source: E. coli BL21-CodonPlus(DE3)-RIPL or Rosetta2(DE3)pLysS, purified (Ni-NTA, HiTrap Heparin, Superdex …)
As for B1, the binding result is “binds”.
